Measured values reported in paper PMC6351565.

How the values were obtained:
[1] = molecular target: M2345/WT IRSp53 heterodimer (human (from the printed UniProt entry)) (UniProt Q9UQB8); test: co-IP; homo- and heterodimers of wild-type and M2345 IRSp53 (FLAG and STREP tags, single plasmid with IRES) from HEK293T cells; endogenous 14-3-3 detected by blot, relative to WT-IRSp53-FLAG/WT-IRSp53-STREP
[2] = molecular target: WT/M2345 IRSp53 heterodimer (human (from the printed UniProt entry)) (UniProt Q9UQB8); test: as above
Chain of WT/M2345 IRSp53 heterodimer (human (Q9UQB8 other isoform, or with tags, fused parts or gaps T340A | T360A | S366A | 452SSST455 -> AAAA, chain 1 of 2): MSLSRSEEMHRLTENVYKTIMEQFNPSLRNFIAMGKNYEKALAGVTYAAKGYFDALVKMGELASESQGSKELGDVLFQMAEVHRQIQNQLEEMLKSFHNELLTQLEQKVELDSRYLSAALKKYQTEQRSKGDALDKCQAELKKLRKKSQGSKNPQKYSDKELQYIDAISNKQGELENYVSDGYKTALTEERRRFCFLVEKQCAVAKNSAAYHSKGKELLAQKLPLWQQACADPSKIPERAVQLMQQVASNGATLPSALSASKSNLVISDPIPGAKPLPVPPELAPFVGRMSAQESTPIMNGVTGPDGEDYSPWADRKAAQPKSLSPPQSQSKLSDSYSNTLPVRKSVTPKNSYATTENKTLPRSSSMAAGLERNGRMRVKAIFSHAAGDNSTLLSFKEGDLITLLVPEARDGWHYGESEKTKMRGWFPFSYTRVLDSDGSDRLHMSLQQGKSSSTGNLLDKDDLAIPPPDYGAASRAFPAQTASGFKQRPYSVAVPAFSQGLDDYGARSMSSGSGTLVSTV
Chain of WT/M2345 IRSp53 heterodimer (human (Q9UQB8 other isoform, or with tags, fused parts or gaps, chain 2 of 2): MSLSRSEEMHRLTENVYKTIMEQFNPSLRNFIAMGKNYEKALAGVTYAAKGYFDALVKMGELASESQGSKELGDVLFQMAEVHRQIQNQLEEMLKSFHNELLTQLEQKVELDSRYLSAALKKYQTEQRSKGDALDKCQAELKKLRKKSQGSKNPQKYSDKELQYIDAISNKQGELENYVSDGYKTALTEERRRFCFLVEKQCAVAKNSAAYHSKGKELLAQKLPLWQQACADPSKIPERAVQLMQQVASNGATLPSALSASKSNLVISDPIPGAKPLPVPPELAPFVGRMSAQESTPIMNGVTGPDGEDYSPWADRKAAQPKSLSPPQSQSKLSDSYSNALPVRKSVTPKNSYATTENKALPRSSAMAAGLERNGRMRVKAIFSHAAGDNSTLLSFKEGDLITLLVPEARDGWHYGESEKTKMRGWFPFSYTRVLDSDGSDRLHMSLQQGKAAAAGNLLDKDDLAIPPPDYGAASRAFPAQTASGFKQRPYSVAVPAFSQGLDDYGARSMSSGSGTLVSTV

Chain of endogenous 14-3-3 (all isoforms included) (P27348 whole entry, canonical isoform): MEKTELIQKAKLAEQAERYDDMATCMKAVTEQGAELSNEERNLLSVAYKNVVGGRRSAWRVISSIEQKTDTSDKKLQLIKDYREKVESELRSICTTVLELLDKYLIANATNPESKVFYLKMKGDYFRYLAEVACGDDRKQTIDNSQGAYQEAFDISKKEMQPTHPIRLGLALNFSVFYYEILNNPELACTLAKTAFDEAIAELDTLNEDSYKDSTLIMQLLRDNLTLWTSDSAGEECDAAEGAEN

- percent of the amount that coimmunoprecipitates with WT/WT IRSp53 [1]: 50%
- percent of the amount that coimmunoprecipitates with WT/WT IRSp53 [2]: 50%
Substance: endogenous 14-3-3 (all isoforms included) (from UniProt P27348 1-245) (natural protein)
